Laboratory results reported in patent US20100015126A1, “Methods of Binding of Cross-Beta Structures By Chaperones” (priority 2006, published 2010).

Key:
human BiP = biological target: T1, human BiP (Homo sapiens, UniProt P11021); test: ELISA: binding of BiP-FLAG-His to immobilized (misfolded) protein ligands; settings: ligands coated at 5 μg/ml; 6BB peptides and oxLDL 50 μg/ml
T1 construct: The human BiP gene except the signal peptide encoding region was obtained from Geneart (Germany); linker […]; made in house; host or cells: HEK 293E cells, transient transfection, PABC674 vector; secreted into the medium
T1 sequence (P11021 19-654): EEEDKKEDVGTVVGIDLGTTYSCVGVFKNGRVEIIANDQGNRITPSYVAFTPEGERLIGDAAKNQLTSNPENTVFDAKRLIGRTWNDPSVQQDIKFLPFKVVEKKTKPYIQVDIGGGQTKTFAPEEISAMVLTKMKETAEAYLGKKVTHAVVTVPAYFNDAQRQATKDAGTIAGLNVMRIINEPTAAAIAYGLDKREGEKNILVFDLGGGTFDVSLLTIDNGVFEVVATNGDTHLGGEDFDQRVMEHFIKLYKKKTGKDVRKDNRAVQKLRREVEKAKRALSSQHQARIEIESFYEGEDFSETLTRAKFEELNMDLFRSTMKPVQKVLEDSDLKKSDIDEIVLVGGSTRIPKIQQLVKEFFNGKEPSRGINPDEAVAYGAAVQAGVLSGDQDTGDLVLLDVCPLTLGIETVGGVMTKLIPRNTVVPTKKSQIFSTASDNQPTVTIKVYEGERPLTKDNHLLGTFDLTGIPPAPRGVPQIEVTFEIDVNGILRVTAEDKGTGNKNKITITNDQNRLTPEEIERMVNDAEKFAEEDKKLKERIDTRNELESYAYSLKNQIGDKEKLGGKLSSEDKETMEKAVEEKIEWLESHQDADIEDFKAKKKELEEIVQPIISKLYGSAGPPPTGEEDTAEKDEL
Procedure, shortened: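 Ligands were coated at 5 μg/ml (50 μg/ml for 6BB# peptides and oxLDL) in 50 mM NaHCO3 pH 9.6, blocked, then incubated in triplicate with BiP-FLAG-His dilution series for 1 h at room temperature. Bound BiP was detected with peroxidase anti-FLAG M2 and TMB, stopped after 5 min and read at 450 nm. Buffer-only and chaperone-omitted background signals were subtracted.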

factor XII in plasma = biological target: T2, factor XII in plasma (Homo sapiens, UniProt P00748); test: Factor XII activation assay (direct, substrate S-2222); format: biochemical; settings: chromogenic substrate S-2222
T2 construct: from tissue; host or cells: plasma
T2 sequence (P00748 20-615): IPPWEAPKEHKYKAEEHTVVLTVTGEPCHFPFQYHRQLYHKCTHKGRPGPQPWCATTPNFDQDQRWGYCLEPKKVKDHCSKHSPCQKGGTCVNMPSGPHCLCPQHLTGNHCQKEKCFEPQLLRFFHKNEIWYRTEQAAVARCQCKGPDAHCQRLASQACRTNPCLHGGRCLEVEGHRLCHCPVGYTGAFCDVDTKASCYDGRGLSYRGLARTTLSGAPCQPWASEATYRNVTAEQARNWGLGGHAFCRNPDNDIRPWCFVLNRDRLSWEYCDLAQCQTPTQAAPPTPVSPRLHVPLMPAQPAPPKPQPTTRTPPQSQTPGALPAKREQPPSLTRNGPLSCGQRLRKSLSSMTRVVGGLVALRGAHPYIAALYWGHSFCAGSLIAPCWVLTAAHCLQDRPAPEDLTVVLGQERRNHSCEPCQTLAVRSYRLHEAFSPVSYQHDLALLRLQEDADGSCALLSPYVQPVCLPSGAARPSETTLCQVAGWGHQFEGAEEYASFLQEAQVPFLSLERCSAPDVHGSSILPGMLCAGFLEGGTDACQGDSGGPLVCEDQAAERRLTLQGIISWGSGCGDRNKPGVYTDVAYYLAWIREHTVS
Procedure: Alternatively, activation of factor XII was assessed directly by omitting prekallikrein and using a factor XII chromogenic substrate, S-2222 (Chromogenix, Italy).

HUVECs = test: Adhesion of HUVECs to immobilized misfolded proteins under influence of BiP (LDH read-out); format: cell-based, human; settings: BiP approximately 200 μg/ml
Procedure: HUVECs are primary endothelial cells (ECs), isolated from umbilical cords using 0.1% collagenase (Sigma, C0130, 100 mg, dissolved in 100 ml M199 medium supplemented with 10% FCS (Gibco 10106-169) and Penicillin-Streptomycin (P/S, Gibco, 15140-122)), according to widespread used standard procedures known to a person skilled in the art. HUVECs have the typical features of ECs, e.g. cobblestone morphology and von Willebrand factor storage in Weibel-Palade bodies. HUVECs can regularly be cultured up to passage 5; beyond passage 5 HUVECs loose typical EC markers. The isolation is described here in brief. The umbilical cord is washed for less than 3 minutes in ethanol and subsequently with PBS. The vein is connected to canules and flushed with 10 ml PBS, followed by loading with the 0.1% collagenase solution. After a 15 minute-incubation at 37° C., the detached endothelial cell suspension is recovered by flushing the vein with 10 ml medium which is subsequently added to the collagenase solution. The EC suspension is centrifuged for 5 minutes at room temperature, at low g-force. Supernatant is discarded and the cell pellet is resuspended in 5 ml ‘rich medium’ (EGM-2; Endothelial basal medium (EBM-2, Cambrex, CC-3156) and Singlequots containing supplements for endothelial cells (Cambrex, CC-4176)). Cells (passage 0, P0) are seeded in a culture flask coated with 0.5% gelatin (Sigma, G1393). To facilitate the adhesion of the endothelial cells, human fibronectin is added to the cell culture at a final concentration of 2 μg/ml. EC's are cultured at 37° C., at 5% CO2. The cell culture medium is refreshed every 2-3 days up to when the cells grow to confluency. Then, with the addition of trypsin-EDTA, the cells are detached from the flask, centrifuged at low g-force, resuspended in rich medium and seeded in larger 0.5% gelatin-precoated cell culture flasks.
In 96-wells plates (Immulon high-binding plates, Thermo Labsystems 3355) proteins, i.e. BSA-AGE, control BSA, IgIV Gammagard, crossbeta dIgIV-86 at 5 μg/ml, 10 μg/ml misfolded oxLDL, or gelatin (Sigma G1393, 2% solution in H2O or PBS, positive control for adhesion to ECs) were coated using 100 μl solutions, in six wells for each condition. Following incubation for 2 hours at 37° C. the solutions were discarded and the wells blocked for 1 hour at 37° C. with 100 μl/well of 1% polyvinyl-pyrrolidone (PVP, Sigma P5288) in PBS, filter (0.22 μm) sterilized. […] Subsequently, the block solution was discarded. Next, the plates were incubated with 40 μl RPMI 1640 medium (Gibco, 52400) and 10 μl of the potential inhibitor, i.e. recombinant human BiP at approximately 200 μg/ml final concentration. HUVECs were obtained by trypsinization. […] The absorbance at 490 nm was measured on a Versamax microplate reader at various time points.

For “KRLEVDIDIKIRS [FP13, synthetic fibrin fragment comprising crossbeta structure]”, the “Binding of concentration series of BiP to coated ligand” value (human BiP) was “has been established” and the “Activation of factor XII in plasma (conversion of S-2222)” value (factor XII in plasma) was “stimulates the conversion of S-2222”.

For gelatin, the “Number of adhered HUVECs after preincubation of coated protein with BiP” value (HUVECs) was “hardly increase”.
